According to the DeepSol protein solubility set:

Assay: soluble on expression in E. coli; label from the status in PepcDB or PDB records

Row | Sequence | soluble on expression in E. coli
1 | MSLTEIRLVDVTMRDGNQSLWGATGLNTAHMLQAAALTEACGFRAIDFTSSSHMAVAVRYFQNNPWERLRRMAAAMPTTPLQFITTGLRFIAWQQADPEFMRLVYRALQANGVGRFVLLDPMHEVPAVIEAAKLVKEEGNAEVMAALTFTLSEIHTDQFYADFARAVGQSPNIDLFYIKDPAGLLSVDRARTLVPAVKAVIGNRPLEIHAHTTVGQGMMASLEAAKLGISAIHVGVGPGGDGSSLPEANRMVANLEEAGFSVGVDKAALKRLTTYWERVALAEGLPPGTPQNFDASFLRHQIAGGVMTTIARQLDELGLSDRMGAVIEETGQVRADLGFPIMVTPFPQMVMTQALFNVIGERRYAQVSDQVIRYCMGKFGKPTSPVDREVLATIMDRPRSRELEDEPMFPALGDLRRQFGSHLPDEEFLLRAVMPGEQVDAMLAAGPSRATYSPQAAPILSLLRQLAARPDARDIVIEREGFRLALHAGASLEGHHHHHH | not soluble
2 | MMIFRFVTTLAASLPLLTFAAPISFSHAKNEAVKIYRDHPVSFYCGCEIRWQGKKGIPDLESCGYQVRKQENRASRIEWEHVVPAWQFGHQLQCWQQGGRKNCTRTSPEFNQMEADLHNLTPAIGEVNGNRSNFSFSQWNGIDGVTYGQCEMQVNFKERTAMPPERARGAIARTYLYMSEQYGLRLSKAQNQLMQAWNNQYPVSEWECVRDQKIEKVQGNSNRFVREQCPN | soluble
3 | MGSDKIHHHHHHMIALGIEGTAWSLSIGVVDEEGVIALENDPYIPKEGGIHPREASQHHSERLPSLLSRVFEKVDKNSIDVVAFSQGPGMGPCLRVVATAARLLAIKLEKPLVGVNHCLAHVEVGRWQTGARKPVSLYVSGGNSQVIARRGNRYRVFGETLDIGIGNALDKLARHMGLKHPGGPKIEELAKKGQKYHFLPYVVKGMDFSFSGMVTAAQRLFDSGVRMEDVAFSFQETAFAMLTEVTERALAYLDLNEVLLVGGVAANKRLQEMLRIMCEDRGAKFYVPPKELAGDNGAMIAYTGLLMYKHGHQTPVEKSYVRPDFRIEDVEVNWD | not soluble
4 | MRTISFFNNKGGVGKTTLSTNVAHYFALQGKRVLYVDCDPQCNATQLMLTEEQTESIYLDGLNDEVAERNSLAKTVYAIFVPLREGESQIAAEITPMRSERFGVDVLPGHPALSQIEDLMSDSWQSALGRQTGPFRRIHWAGQLAHAMERDDRYDVIFFDVGPSLGPFNRTVLLGCDAFVTPTATDLFSFHAFGNLARWFDAWVTQYAEIHEGNMAEWKKYSADVEAKTRPLRLGGFDGEGLRYLGYTTLEYVKRRANGQEQLVGAFERFRGRFAAEAERISNSLSKHSNSTLLGHVPHMHSMPATAQDVHAPIMELSSSDRVRGAQINQRNAYAEKINSVAANVYKALFPNELEHHHHHH | soluble
5 | MLTPRDENNEGDAMPMLKKPRYSSLSGQSTNITYQEHTISREERAAAVGRHEGFRGCTIWFTGLSGAGKTTISFALERTLNKLGIPCYGLDGDNIRHGLCKNLGFSKEDRQENIRRVAEVAKLFADSGMICLAAFISPFQEDRLDARKIHESENVKFIEVHVSTTLEVCEQRDPKQLYKKARAGQILGFTGIDSAYEPPENAEIILDAGKDGVQQCVQKVLDHLESKGLLPEQIPDVPAVRELFVSDDLTVAELLKESQNLPTVELTKVDLQWLQVLAEGWATPLSGFMRERQYLQSMHFGQLLDLKHKVAFVGEKSDDKEDSWPMMDDINQSIPIVLPISDDVKKGLEGVTRIALKYNGQVYAILSDPEIFEHRKDERVCRQFGTNDPRHPAVAQVLESGNWLLGGDVAVVQKIQFNDGLDKYRKTPNELRAIFAEKNADAVFAFQLRNPIHNGHALLMRDTREKLLAEHKNPILLLHPLGGWTKDDDVPLDIRIKQHEAVIAERVLDPEWTVLSIFPSPMMYAGPTEVQWHARSRIAAGIQHYIVGRDPAGIQKPGSPDALYETTHGAKVLSMAPGLSALHILPFRVAAYDKTAKKMSFFDTSRKEDFENISGTKMRGLARNGDTPPEGFMAPTAWEVLAGYYKSLQNSN | not soluble
6 | MKFICPLFVVNNMEISRNFYEKVLNQKVQYDFGENVSFESGFAIHLKPHFSELTGINRNDIIQKSNNSELYFEEEDLDSFLKKLKEMNSIEYVHELKEQPWGQRVIRFYDPDMHIIEVGEPMESVVKRLLSEGLSVEETSKRTLMPEEFVRQFLLEHHHHHH | soluble
7 | MSLENPYQLVEDIEGIGFKRADNLAEQIGIAADSPRRIRAAILHQIFQHAVQTGDTYVPAETLLQQTIRILETSRPIEIQPDQVATVIIQLVEEGKIQQEETNLYENSLYFSEWGIGNSIQRLLSRKKEIHYPEKEVQKNIRRIEKIFGIQYGPSQEQAIAEAIRSPLFILTGGPGTGKTTVINGIVNLFAELNGLELDPSKYTQEIFPILLAAPTGRAAKRMNETTGLPASTIHRLLGLNGREKTPSVSTKELEGGLLIVDEMSMVDTWLANTLFKAIPTNMQVILVGDKDQLPSVGPGQVLHDLLEIEQIPKMELNQIYRQGDGSSIIPLAHEIKEGRLPKDFTKNQKDRSYFRSDAYQIEPLISKIVEKAKNKGFRAQDIQVLAPMYRGPAGIDALNKMMQEIFNPGKPGKKEVHWNDTVYRIGDKVLQLVNTPELNVFNGDMGEITGIILAKDSEDKVDELVIQFDANEVTYKRNEWNKITLSYCCSIHKSQGSEFKMVILPMVHQYQRMLQRNLLYTAVTRSKELLILLGEEQAYVTCVANESASRMTTLKSRIMDNDKMNEGHHHHHH | soluble
8 | MENMLLWLIFFTPGWTLIDGSEMEWDFMWHLRKVPRIVSERTFHLTSPAFEADAKMMVNTVCGIECQKELPTPSLSELEDYLSYETVFENGTRTLTRVKVQDLVLEPTQNITTKGVSVRRKRQVYGTDSRFSILDKRFLTNFPFSTAVKLSTGCSGILISPQHVLTAAHCVHDGKDYVKGSKKLRVGLLKMRNKSGGKKRRGSKRSRREASGGDQREGTREHLQERAKGGRRRKKSGRGQRIAEGRPSFQWTRVKNTHIPKGWARGGMGDATLDYDYALLELKRAHKKKYMELGISPTIKKMPGGMIHFSGFDNDRADQLVYRFCSVSDESNDLLYQYCDAESGSTGSGVYLRLKDPDKKNWKRKIIAVYSGHQWVDVHGVQKDYNVAVRITPLKYAQICLWIHGNDANCAYG | not soluble
9 | MANSSVELRVSEAYPRDVGRKIVRIDRQTAARLGVEVGDFVKVSKGDRSVVAVVWPLRPDDEGRGIIRMDGYLRAALGVTVGDTVTVEKAEKVEPASKVVLAPTEPIRFGRDFVEYVKEFLLRKPISRGETIIVPVLEGLPLVVVSTQPAHFVYVTEATEVEIREKPVREEIERLRGVPKVTWEDIGDLEEAKERIREIVELPMKHPEIFKHLGIEPPKGILLYGPPGTGKTLLAKALANEIGAYFISINGPEIMSKYYGESEQRLREIFKEAEENAPSIIFIDEIDAIAPKREEVTGEVEKRVVAQLLTLMDGLKERGRVIVIGATNRPDAIDPALRRPGRFDREIEIRPPDKRARAEILKVHTRNMPLAEDVDLDKLAEMTHGYTGADLAALAKEAAMAALRRFIREGKINFEAKEIPATVLKELKVTMKDFMEAMKMIRPTLIREIYVEVPEVRWSDIGGLEEAKQALREAVEWPLKHPEIFEKMGIRPPRGVLLFGPPGTGKTLLAKAVATESGANFIAVRGPEILSKWVGESERAIRKIFERARQAAPAVVFFDEIDAIAPARGARFDTSGVTDRIVNQMLAEMDGIQPLSNVVVIGATNRPDILDPALLRPGRFDRLIYVPPPDKEARKEIFKIHTKKVPLGEDVDLEKLAEMTEGYTGADIEAVVREAVMAKLREKLEVGKVEMRHFLEALKKVPPSLTKEDILRYERLAKELKKLTLG | soluble
10 | MEFMSAPANAVAADDATAIALKYNQDATKSERVAAARPGLPPEEQHCANCQFMQADAAGATDEWKGCQLFPGKLINVNGWSASWTLKAG | soluble
11 | MSGFSVYVGNAPFQTTEDDLGNYFSQAGNVSNVRIVCDRETGRPRGFAFVEFTEEAAAQRAVDQFNGVDFNGRALRVNLAQNRNN | not soluble
12 | MARKLFTSESVTEGHPDKICDQISDAVLDAIFSQDPMARVACETAVTTGLVLVTGEITTNCYVDIPKIVRSTIREIGYDRAKYGFDCDTCAVLTSIDEQSPDIAMGVNKALEAKTGEMSDEEIEAIGAGDQGMMFGFACDETPELMPMPISLAHKLAMRLSQVRKNGTLNYLRPDGKSQVTVEYDGDKPVRVDTVLISTQHGPEVDYDTIKRDVIEHVIKPVIPAELLDSKTKYLVNPTGRFVIGGPQGDSGLTGRKIIVDTYGGYARHGGGAFSGKDPTKVDRSAAYAARYVAKNIVAAGLARKCEVQLAYAIGVARPVSVRVDTFGTGIIPEEKIESLVNKYFDLRPAGIIKTLDLRRPIYKQTAAYGHFGRTDIDLPWERTDKPKS | not soluble
13 | MGSDKIHHHHHHMIPPVPQKGRGTAHNPHNRFAPGHSVAEDDGWYQEVPQTQGTEVRIETAKSVISRNTSPDLPFDRSINPYRGCEHGCIYCYARPSHAYWDLSPGLDFETKLIAKTNAAEVLAQQLSKPGYVCAPINLGSNTDPYQPIEREQLLTRRLLEVLLRFRHPVTIVTKGSLVLRDLDLLAEMARQRLARVMISLTTLDDGLKRVLEPRAASPGARLRAIRVLREAGVPVGVLCSPMIPMINDSELERLLEAAKEAGAQSAAYMMLRLPLEVAPLFEQWLQDHYPQRAAHVLSLIRQSRGGELYDSRFGVRMRGEGVFAELLAQRFAKAMKRLDFEGREAQELDCSAFCPPGGQMALF | not soluble
14 | MGSDKIHHHHHHPNDPIIYKKEGGAFLWLGDTAWELFHVLDKEEIVHYLDNRQEKGFTVIQAVILSELDGLDKPNAYGYLPLVDKDPTQITEGYFELVDFVIREAGKRGMYIGLLPTWANNVVEKDGNPALFNPDNAYTYGKILGTRYKNEAVIWILGGDRNVVTDKEFEIWQSMAKGIQEGNGGTQLMSYHPTGEISSHYWFHNESWLSFNILQSGHYRRMDPVYRFSGMYAQLNPIKPFVNAEPSYEDIPVLFWEYFDYAKFGKKKEDIIGDNGLIKDTTYFTDGIYDDYDIRMQAYWTYFSGAAGYTYGNNAIWQMYKPGGKYHVPCLTFWDGALDRPGAECMRYVKSLFTMYPLDRFRPDLSVLFGINYNDASYITPVLAKDKTFILVYLSQGQDVRIQMSKLRSLGKAYWFNPRNGARTLIGPVENKGIRTFNAPGEAGERGNDWILILEADDR | not soluble
15 | MADYKDIVLIQSTSSLSASLGDRVTISCRASQDIRNYLNWYQQKPDGTVKLLIYYTSRLLPGVPSRFSGSGSGTDYSLTISNLEQEDIGTYFCQQGNTLPWTFGGGTKLEIRRGGGGSGGGGSGGGGSGGGGSEVQLQQSGPELVKPGASVKISCKDSGYAFSSSWMNWVKQRPGQGPEWIGRIYPGDGDTNYNGKFKGKATLTADKSSSTAYMQLSSLTSVDSAVYFCARSGLLRYAMDYWGQGTSVTVSS | soluble
16 | MSLNRVFIVDDDTLTCNLLKTIVEPIFGNVEAFQHPRAFLTLSLNKQDIIILDLMMPDMDGIEVIRHLAEHKSPASLILISGYDSGVLHSAETLALSCGLNVINTFTKPINTEVLTCFLTSLSNRQAQRELVSFNNDKANQGKFDFIPTEQDLREAIDKKQLILYYQPQINMKTECLHGAEVLVRWLHPEFGLIYPDKFIALAEQTGLIEQLSEEVIHLAIKQSVHWQKLNRATRLSINISAQNITSLKLPEQLRMLVKKYEIDPSMIVLELTESALMDSEVTSLDIFTRFRLKGFQLSIDDFGTGYSSLSQLHKIPFTELKIDQSFVTNMKQEKESMAIVETCIMLAHKLNMEAVAEGIEDKETWDLLSAEGCDIAQGYYIARPMPADQFDKWQFNEGHHHHHH | soluble
